T1: His-tagged human B7-H3 (human, UniProt Q5ZPR3-2 29-245, limits assumed)
T1 construct: Bought His-tagged protein coated on the ELISA plate; also called hu B7-H3; CD276
T1 sequence (looked up): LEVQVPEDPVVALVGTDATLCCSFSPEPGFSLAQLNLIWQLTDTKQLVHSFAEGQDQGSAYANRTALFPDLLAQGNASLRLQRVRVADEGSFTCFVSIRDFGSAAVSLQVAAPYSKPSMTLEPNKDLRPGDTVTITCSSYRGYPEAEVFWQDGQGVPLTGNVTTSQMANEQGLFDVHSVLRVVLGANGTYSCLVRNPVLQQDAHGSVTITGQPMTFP

T2: His-tagged mouse B7-H3 (mouse, UniProt Q8VE98 29-244, limits assumed)
T2 construct: Bought His-tagged protein coated on the ELISA plate; also called mu B7-H3; murine B7-H3
T2 sequence (looked up): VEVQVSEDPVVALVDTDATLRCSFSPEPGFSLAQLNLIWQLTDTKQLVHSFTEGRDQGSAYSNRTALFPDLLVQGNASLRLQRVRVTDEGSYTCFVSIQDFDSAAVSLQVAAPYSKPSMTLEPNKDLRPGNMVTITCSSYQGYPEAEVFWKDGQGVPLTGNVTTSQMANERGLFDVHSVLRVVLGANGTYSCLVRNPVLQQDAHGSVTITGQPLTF

T3: His-tagged cynomolgus monkey B7-H3 (cynomolgus monkey)
T3 chain: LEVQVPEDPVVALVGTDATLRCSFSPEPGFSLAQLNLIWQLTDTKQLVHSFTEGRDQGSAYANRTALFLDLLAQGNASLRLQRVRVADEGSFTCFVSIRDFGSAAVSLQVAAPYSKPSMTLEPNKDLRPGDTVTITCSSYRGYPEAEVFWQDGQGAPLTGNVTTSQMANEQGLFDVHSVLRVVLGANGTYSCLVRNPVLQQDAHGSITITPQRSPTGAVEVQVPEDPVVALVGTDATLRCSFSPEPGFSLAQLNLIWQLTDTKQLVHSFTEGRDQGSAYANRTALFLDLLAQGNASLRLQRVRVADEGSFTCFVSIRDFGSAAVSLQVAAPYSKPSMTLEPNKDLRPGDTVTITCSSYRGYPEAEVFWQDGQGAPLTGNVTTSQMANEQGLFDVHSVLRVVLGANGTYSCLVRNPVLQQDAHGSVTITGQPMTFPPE

T4: B7-H3 on B7-H3-expressing CHO cells (Genescript) (UniProt Q5ZPR3 29-534, limits assumed)
T4 construct: whole, on cells; also called CHO-K1/B7-H3; MFI B7-H3
T4 sequence (looked up): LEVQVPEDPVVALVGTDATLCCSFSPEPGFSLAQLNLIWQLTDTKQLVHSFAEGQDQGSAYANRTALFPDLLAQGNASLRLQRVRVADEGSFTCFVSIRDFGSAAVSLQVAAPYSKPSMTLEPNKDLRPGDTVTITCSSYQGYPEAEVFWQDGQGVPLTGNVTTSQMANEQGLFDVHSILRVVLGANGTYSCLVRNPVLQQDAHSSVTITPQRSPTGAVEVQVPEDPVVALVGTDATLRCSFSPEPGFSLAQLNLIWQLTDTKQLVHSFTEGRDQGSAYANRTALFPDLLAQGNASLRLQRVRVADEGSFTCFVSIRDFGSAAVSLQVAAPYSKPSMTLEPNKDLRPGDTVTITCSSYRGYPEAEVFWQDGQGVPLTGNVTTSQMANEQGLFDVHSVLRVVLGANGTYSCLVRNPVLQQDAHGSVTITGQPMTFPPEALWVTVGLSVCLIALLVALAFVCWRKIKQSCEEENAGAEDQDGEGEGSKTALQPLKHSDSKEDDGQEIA


What was measured:
His-tagged human B7-H3 [1] = target: T1, His-tagged human B7-H3; experiment: ELISA OD450 on hu B7-H3 over OD450 on mu B7-H3
His-tagged human B7-H3 [2] = target: T1, His-tagged human B7-H3; experiment: ELISA, coated His-tagged antigen, scFv-Fc 1 ug/ml
His-tagged mouse B7-H3 [3] = target: T2, His-tagged mouse B7-H3; experiment: ELISA, coated His-tagged antigen, scFv-Fc 1 ug/ml
[4] = target: T3, His-tagged cynomolgus monkey B7-H3; experiment: ELISA, coated His-tagged antigen, scFv-Fc 1 ug/ml
[5] = target: T4, B7-H3 on B7-H3-expressing CHO cells …; experiment: flow cytometry, B7-H3-expressing CHO cells, 10 ug/ml
In short: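 Antibodies at 10 μg/ml in PBS/1% BSA/0.01% NaN3 incubated 60 min on ice with ~1.5e5 cells; parental CHO cells as counterscreen. After washing, read by flow cytometry; values are mean fluorescent intensities (MFI).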

His-tagged mouse B7-H3 [6] = target: T2, His-tagged mouse B7-H3; experiment: ELISA, coated His-tagged antigen

hu:mu ratio (His-tagged human B7-H3 [1]) | ELISA OD450 @ 1 ug/ml (His-tagged human B7-H3 [2]) | ELISA OD450 @ 1 ug/ml (His-tagged mouse B7-H3 [3]) | ELISA OD450 @ 1 ug/ml [4] | MFI @ 10 ug/ml [5] | binding result (His-tagged mouse B7-H3 [6]) | Binder
2.1 | 1.01 OD450 | 0.48 OD450 | 1.87 OD450 | 40800 MFI | – | 40579p1.D8 (scFv, V domains shown, Tested as scFv-Fc (Expi293 supernatant)) VH: EVQLLESGGGLVQPGGSLRLSCAASGFTFSDYYMSWVRQAPGKGLEWVSSISISYGGTTYYADSVKGRFTISRDNSKNTLYLQMNSLRAEDTAVYYCARDRSPYQCRSMDVWGQGTTVTVSS VL: EIVLTQSPGTLSLSPGERATLSCRASQSIRSDLAWYQQKPGQAPRLLIYNTVTRATGVPDRFSGSGSGTEFTLTISSLQSEDFAVYYCQQYNSWPPLTFGGGTKVEIK
– | – | 0.051 OD450 | 0.769 OD450 | 11600 MFI | no binding (tested: 1 ug/ml) | 40579p1.H11 (scFv, V domains shown, Tested as scFv-Fc (Expi293 supernatant)) VH: EVQLLESGGGLVQPGGSLRLSCAASGFTFDDYGMSWVRQAPGKGLEWVSAIRSKASSYATYYADSVKGRFTVSRDNSENTLYLQMNSLRAEDTAVYYCAKHRSNYYFMDVWGQGTTVTVSS VL: EIVLTQSPGTLSLSPGERATLSCRASQSVGSDLAWYQQRPGQAPRLLIYAASSRATDIPDRFSGSGSGTDFTLTISSLQSEDFAVYYCQQYYSWPPLTFGGGTKVEIK
38.4 | 2.11 OD450 | 0.055 OD450 | 2.34 OD450 | 25400 MFI | no binding (tested: 1 ug/ml) | 40511p1.2.A8 (scFv, V domains shown, Tested as scFv-Fc (Expi293 supernatant)) VH: not shown VL: EIVLTQSPATLSVSPGERATFSCRASQNVRSYLAWYQQKPGQAPRLLIFNTVTRATGIPDRFSGSGSGTDFTLTISSLEPEDFAVYYCQQYYDWPPLTFGGGTKVEIK

Reference: patent US20260008852A1 (CRYSTAL BIOSCIENCE, published 2026)
